{"source": "paper PMC10965056", "system": "T1, PsdR-His (Pseudomonas aeruginosa PAO1?), ORF:604e189e", "T1 sequence": "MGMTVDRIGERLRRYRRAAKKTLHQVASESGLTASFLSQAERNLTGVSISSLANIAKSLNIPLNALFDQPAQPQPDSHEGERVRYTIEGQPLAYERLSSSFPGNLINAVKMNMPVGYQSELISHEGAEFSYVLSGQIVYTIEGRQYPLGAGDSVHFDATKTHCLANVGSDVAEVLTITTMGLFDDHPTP", "experiment": "EMSA", "conditions": "10 mM Tris-HCl pH 7.5, 50 mM KCl, 1 mM DTT, 1% glycerin, 10 mM MgCl2, 1 ug/ul poly(dI-dC), 25 C, 30 min; 6.5% polyacrylamide gel"}
{"sequence": "CGGGTATCGTACTAGGTGCATCAAACGCTGCGGTCTATTGTTAAGTGGGACTGAAATGTGCCTTTCCGGCACAACGCCAACTCTATAGA (double strand) [PlasR-WT]", "values": [{"measurement": "binding", "result": "binds"}]}
